Measurements published in the DeepSol protein solubility set.

Experiment: soluble on expression in E. coli; label from the status in PepcDB or PDB records

| Sequence | soluble on expression in E. coli |
| --- | --- |
| MAHHHHHHMYLCWNDTFLTSFALDTLLSKLVAEVCEKRPVSSRQVLELMREALETQKMQQWYYSETVRSFNDAVNSLSRRGFPLQMACPLYFRIPQEDGGVHELFRYGSEIAVTPNNYDHFEHMLKRYQAVVNGELSQEGYYDAVRHLLPISAHCNLLNSSYTPIINFLQECLLNPRSQWAIQSSSVWDQLGVTYAVPFAGRLFAVDPTKPVTALVSFEDANRYVEMASERCRTLSSLLTTGASLNVVRRAAAAAASPPSASSGRAAVKLAPSTIPVASSAATSEEARKWEAFEAIGLRPEVFSDMSPAEIEFWKYILRLRESPSQIHDISFHLEFGPHHMDLKENGRFIPVTRLNLNQFIEAVVAKQDEVHRYINEVALVTPTHSNASRDAGGGGEGSAGPPPPPVAASNTAAAQAMPAPQQDIKIPAQPPPRTIGSEATSPVGHAQSEAHRDNEAHLTLRDVDSTVVRSIMELRSQYQLGRLTKTELNARQLRFCLPCRDGVYNLIPNGRHIQVATGNIGIFLQYVEEEKKRVEALSGGKSEDSAARACSHAPEATTGGTGSLNVIQRDRERVYGAVEAADADAGYWTDKNVLDIWTYECTTACLLKSSMSPEEIVRQTQLQWDTNFLSRKDCPYANASEDGCVILPKDVKTYLRLLRRRLQSIRLAILDAGKCPQEPSEWDVGEWDVVNPSTPPLEFEVPASVHAIPSAPENLTMFSPTHNTGGLLAPSQSLYL | not soluble |
| MPDEKDKHEGTWLQWPHEYTYGEEYKKEVEPIWVKMASALTEGEKVHIVAYDQEEKERINNLLTDEGLNMEKIDFFIAPTDDVWARDSGPIFVYDSNKNLKILDPAFNGWGKKTPYKNDAQIRKNVSKQSGIERVDWGKFVLEGGAIELDSNGTALLTRSAVTNKNRNPDLSEKEIEKYISDLGVSNFIWLDGVPNLDITDFHIDGFAKFHNKSTIVTMKEDDLAEWGLSNKDMDTLLDAKNASGQKYKYEYLPLSKEKVALENGKTLDYKGSYINYYIGNTVVLVPNYNDPNDKIANDTIQKLYPDRKVVGIDVRELYKNGGMIHCVTQQQPIALK | not soluble |
| MNFGKSSWRTYEQGIQREWLLTNGIGGFASSTIIGSNTRRYHGLLVAALKPPVSRHLILSKIDECVTVDNESFNLFSYEVPGFIMHGYHHLERFEYDMLPKYIYRVKDVYVEKEICMVYGENTVVVVYHVINGTGRTNLRLTPLVNFRDYHFNSGRAYMSFERKFEKDVLTVRPSCYDIDIKLYSTDGKFTELDDTWFYNMDYAVERERGLASTEDHYIPGYYDIEIKPLEEKYITFVATVEKNVNHRDGLKIIEKEKKRLKKLASKAGYKDELAKKLVLAADKFIVHRESTNAKTVIAGYPWFTDWGRDTMISLAGLTLATRRFEDAKEILYTFSKYVKDGLIPNMFPDAGHEPPYNTVDAALWYFEAVNKYVNYTHDYKFIKENIYSGLKQIIEYYSKGTHFNIKADEDYLISAGDEHTQLTWMDAKVGDWVVTPRHGKAVEINALWYNALKIMSQLSKHFKEDAGLYDEMAEKVKKSFEEKFWNEEKKCLYDCLTPNYKDDKVRPNQILAVSLSYPVIEGEKAKSVVDIVFKELYTAYGLRSLSPKEKEYVGVYMGDQYRRDGAYHQGTVWTWPLGHFITAYLRVNNYSPEARKMALRFIEPFKDHLQDACLGSVSEIFDGNEPLIPRGCFAQAWSVAEILRAYVEDVMQLVQLKH | soluble |
| MMATQTLSIDSYQDGQQMQVVTELKTEQDPNCSDPDAEGVSPPPIESQTPMDADKQAIYRHPLFPLLALLFEKCEQSTQGSEGTTSASFDVDIENFVRKQEKDGKPFFCEDPETDNLMVKAIQVLRIHLLELEKVNELCKDFCSRYIACLKTKMNSETLLSGEPGSPYSPVQSQQIQSAITGTLSPQGIVVPASALQQGNVTMATVAGGTVYQPVTVVTPQGQVVTQALSPGTIRIQNSQLQLQLNQDLSILHQEDGSSKNKRGVLPKHATNVMRSWLFQHIGHPYPTEDEKKQIAAQTNLTLLQVNNWFINARRRILQPMLDSSCSETPKTKKKPAQNRPVQRFWPDSLASGVAQATPSELAMSEGAVVTITTPVNMNVDSLQSLSSDGATLAVQQVMMAGQSEDESVDSTEDEGGALAPTHISGLVLENSDSLQ | not soluble |
| MSLKARRGLSASDLINLNADRLQCLLSGHPKFVFNKGRRGWGKEALERYAPEYANTFRLHWLAVKREHMIWRCDNEMDIHQLLTAAMDPQEFARFSQVWQENGLDHNWLPLPVHPWQWQEKIATDFIADFGEGRMVSLGEFGDQWLAQQSLRTLTNASRRGGLDIKLPLTIYNTSCYRGIPGRYIAAGPLASRWLQQVFATDATLVQSGAVILGEPAAGYVSHEGYAALARAPYRYQEMLGVIWRENPCRWLKPDESPFLMATLMEWDENNQPLAGAYIDRSGLDAETWLTQLFRVVVVPLYHLLCRYGVALIAHGQNITLAMKEGVPQRVLLKDFQGDMRLVKEEFPEMDSLPQEVRDVTSRLSADYLIHDLQTGHFVTVLRFISPLMVRLGVPERRFYQLLAAVLSDYMKKHPQMSERFALFSLFRPQIIRVVLNPVKLTWPDLDGGSRMLPNYLEDLQNPLWLVTQEYESEGHHHHHH | soluble |
| MGHHHHHHSHMDNAERPRARRRRKPRVLFSQAQVYELERRFKQQRYLSAPERDQLASVLKLTSTQVKIWFQNRRYKCKRQRQDQTLELVGLPPPPPPPARRIAVPVLVRDGKPCLGD | soluble |
| MAHHHHHHMRLYNSLKQELVAATGAKMLGSGGLIDWSKHQVFDNPSDISQTFNEIIDMLAEYFDVDVYATRLNYYRDGTQWKPQHHDSHAYGGRALREDFTVGLSLGATRSLLFVHEASQRDFNFPQLNGDCFAFTGEVNSLFTHGVPRVHTPTGDRFSIIAWGRRRNLNERNGGVPSSAAAQVKGYRINTMEDAVEVAKQLVAAEPGAAAAKKAMPPPCASGDASSGGVATATRPAKRHKRRLQ | soluble |
| MFAPALAYPRPMPELPEVETTRRKIEPLLRGKTIERIVHDAPHRYRNTERAHGRQVRGLTRRGKYLLLHLAAADAAEDEPHDLELIVHLGMTGGFRLEEGPHTRVTFELGSGEKLYFNDPRRFGKVVAVAPGDYASMPTLAAMGPEPLSDDFTEAEFVALAARCGPVKPWLLSQKPVSGVGNIYADESLWHARLHPAQTRLNADEAGRLYRAIREVMAAAVDKGGSSLGNGVGNYRQHDGEGGGFQHSHHVYGRAGQPCDRCGTPIEKIVLGQRGTHFCPVCQPLRTDRSA | not soluble |
| MSLNKLSNVTLSAEQEKLRERVLSFMRSNLSQYKSDWKHPAMFVIQGDAGTGKSVILNSLFNEIQKLSQFSPSSEDILHGTHNYLVVNHPEMLKLYIRISDSFKYISKSSLERPTSLINNLQKRKVMADVVIVDEAHLLATSKDAFKRFYGENHLKDLMSLCKVLVLVYDDKQALRMGSYWDEGSNNGATLKDFYNEIPPKSRDWYTLKQQFRVAAPQNVLNWIDQISVAGKEGHHHHHH | not soluble |
| CIAGHSRGGLIALIAAALKGKWAIAVSAPSDRRKQKEYLSKFPPGTVQYNIYQDLMKMPEYELEYSSLSYADRLKKVLLIHGEDDEMVLKEHSITLCDTIKRMGGDCELHIIPKMKHTPLGQQYQTIWSIIEDWIKRNS | not soluble |
| MHHHHHHSSGVDLGTENLYFQSNAMMKAYQREFIEFALEKQVLKFGEFTLKSGRKSPYFFNAGLFNTGRDLARLGRFYAAALVDSGIEFDVLFGPAYKGIPIATTTAVALADHHDVDTPYCFNRKEAKNHGEGGNLVGSKLEGRVMLVDDVITAGTAIRESMELIQANKADLAGVLVAIDRQEKGKGELSAIQEVERDFGCAVISIVSLTDLITYLEQQGNNTEHLEAVKAYRAQYGI | soluble |
| MTFLDKIKQGCLDGWAKYKILPSLTAAQAILESGWGKHAPHNALFGIKADASWTGKSFNTKTQEEYQAGVITDIVDRFRAYDSWDESIADHGQFLVDNPRYQSVIGEADYKKACHAIKDAGYATASGYAELLIQIIEENNLQKWDKEAIVRKEKQMINSQCREVIEFFINLANAGMGVDKDSFAGWQCADVPCYAAKHWFDVDLWGNAIDLLDSAAAVGWEVHRMPTDANPLTGAFFVQSVPYHQFGHTGIVIEDSDGYTMRTVEQNIDGNPDALYVGAPARFNTRDFTGVIGWFYPPYQGDTVTQPVSTEPQTSETIVETAKTGTFTLDVAEINIRRWPSLASEVVGSYKQGDTVSFDNEGYANGYYWISYVGGSGMRNYLGIGQTDKDGNRISLWGKLNLEHHHHHH | soluble |
| MSCPVIELTQQLIRRPSLSPDDAGCQALLIERLQAIGFTVERMDFADTQNFWAWRGQGETLAFAGHTDVVPPGDADRWINPPFEPTIRDGMLFGRGAADMKGSLAAMVVAAERFVAQHPNHTGRLAFLITSDEEASAHNGTVKVVEALMARNERLDYCLVGEPSSIEVVGDVVKNGRRGSLTCNLTIHGVQGHVAYPHLADNPVHRAAPFLNELVAIEWDQGNEFFPATSMQIANIQAGTGSNNVIPGELFVQFNFRFSTELTDEMIKAQVLALLEKHQLRYTVDWWLSGQPFLTARGKLVDAVVNAVEHYNEIKPQLLTTGGTSDGRFIARMGAQVVELGPVNATIHKINECVNAADLQLLARMYQRIMEQLVA | soluble |
| MAHHHHHHMGVGLSTVRHAGTAILVPTVSAASTAVLPLSSEERVAALPGTTTPPAAAAAPAPPTAEHTSNPRQRLTDTPAAHAAVSLPHAAPKPHRRFLPYPEEASALATPPPAAVLTAAPVVVEAAVKRHRKGSRVTKPLHPAQASLFTWAEGGQRNATGDAIIAGDHLRRRCCPDAGVVANRSMDCDEDATLVVRSPDEGRRSGTSLQSEGGLYGEKGQRQFAASGQWSPSPASPEAEEVAATVCASVNATAVENAPSGPAAPLLSSAFTAYRPVARSASPGPALGQYEGLPLTSVQQVLESKHKVYRICLTGGPCAGKSTMLSAIQAKIPQRTGFRVMCVPEAATLLVTGGMQWDGDLTVPQQLGLLRTQLALEDQFYALAVASHVPTVIVSDRGTMDGRAFCTDAQFQEILRGVGSTIDVLRDRYDAVIHMVTAADGAEEFYNLDNPARYEDLDGARASDLRLQRMYVGHPMFRLLDNSTTFEDKIERGLQVVSQVVHKEQCAPALPTYYLVRRCPAELPVASATYTTYTTVLGNSQISDIRLLVKREMADGSTMHFFKSVRDAPSTVPSSRAPPRATSHASSGASFRSSVNAPTVSTASPTQQRTRAPNASAAASTRACASTATAPALRW | not soluble |
| MSELIKHSSNFLAAISPDNDCSITATNDFEAMMSWLNGYKKKPINTSRNYAREVKRYLIWLSCQGLTLAQVKIEDVYEYFNLLERPTTEWIIPDKKTDKIYPTQLIKYGGLSNRSINYTHTVLGLFYSFLQDAGYLTKNPINLVKKALEHHHHHH | not soluble |
| MYHLKKQRIMGAVKRNTLSVLFIIKKAKLLKNGEAPVCMRITVNKRVAEVMIKRSIPVDLWNQKKECSKGKDRVAIELNHYINTVRAKVLQIHRELEIDNKPITADIIKDCFYGRDKVQRSLQEVYKEHNEKCRALIGKEYTESTVIKFDTSINRLKEYIRSCYHRDDIMLAELDGQFIRDFDFWLKTEKHCQNNSALKHLKNLKKVVRIALANDWIKKDPFYGIHFKQEEVNVEFLSREELDILMNKEFAIKRLEQVRDIFVFCCFTALAFVDVQQLSREHLIKDNSGALWIRKARQKTNQMCNIPVLSIPQRILRKYEDNAECIKKGVLLPVISNQRMNAYLKEIADLCGITKRLTTHVARHTAATIVFLANDVSMENVSKILGHSNIRMTQHYAKVLDSSIMRDMVNVEKNFK | not soluble |
| STMLRVRSRDGLERVSVDGPHITVSQLKTLIQDQLQIPIHNQTLSTNRNLLLAKSPSDFLAFTDMADPNLRISSLNLAHGSMVYLAYEGERTIRGGPAVTPAGSFGRKMTVEDLIARQMRVGRQEKAHCDSVSFDRDCANAFQHFVNESLAFAVKRGGFMYGNVSEDGQVEVNFIYEPPQQGMEDNLILMRDSEEEKRVDAIALGLGMRRVGFIFNQTVTQDKKEYTLSNVEVLLAAQLHAESELKEWVTAVVKLEINEDGGADVHFEPFQMSDMCVRLFKEGWFETEIGPEDDPKLSKLKKEVVVGVKDVKEVDNDFFLVLVKILDHQGPLSCTFPIENRNTQTTMRALKTHMERARSLPFVKRISDFHLLLFVAQFLDVSSDVPALAECVRLQSHVPEGYELLIDSMANTS | soluble |
